Reference: the DeepSol protein solubility set

Experiment: soluble on expression in E. coli; label from the status in PepcDB or PDB records

Soluble on expression in E. coli, not soluble:
MGSDKIHHHHHHMKIARLNLWHVPLTSHTAYYMADGKTCDTVETVVIAVQTDTGITGWGEVCPIPHYLPAYARGVAPALTELAPVILGADPVGVGALMERVDAVLHGHPYAKSALDIALWDITGQVAGLPLHALLGGWRAADMPLYHSITCIAPDDMARIAREAQAQGITQFQVKLGASGDWQTDVERLAKVREAVGPGPLVYGDWNCGATSLEAIRVGRAVAQLDIMLEQPCATLEDCARVQRATGLPMKIDELAHDTASLLTAHRLGIMDAVALKLSKFGGLSTTRRARDLCLHLGARMCIEDTWGSDITTAALLHLGAASEPGRVLNVCDLSGYVAPRLAPDAPVRANGRIAPPEGAGLGITVDRGALGVPDLILD
MGSDKIHHHHHHMKIAVTGKGGVGKSTIVGMLARALSDEGWRVMAIDADPDANLASAIGVPAERLSALLPISKMTGLARERTGASETTGTHFILNPRVDDIPEQFCVDHAGIKLLLMGTVNHAGSGCVCPEHALVRTLLRHILTKRKECVLIDMEAGIEHFGRGTIEAVDLLVIVIEPGSRSLQTAAQIEGLARDLGIKTICHIANKLASPVDVGFILDRADQFDLLGSIPFDSAIQAADQAGLSCYDLSPACRDKAHALMAALLERVGPTQGVS
MGSDKIHHHHHHMKIDDKTGLVLEGGGMRGVFTCGVLDYMMDKKVWFPYGVGVSAGACNGLSYMSRQRGRAKFSNIDLLEKYHYIGIKHLWRKHSILDQELLYEHFPKEILPYDYKTYAENPARFEMVTTNCITGRACYLEEKHDPRRIIAIAKASSSLPYVCPIAYVDGEPMLDGGIVDSIPVLRAIEQGFDKNVVVLTRNRGYRKKGKDMKIPHFIYKKYPRLRVVLSKRCRIYNEQLDLVEQLEDKGRIVVIRPEKPMEVDRIETDIKKLTDLYEEGYACAKKMFEEKRILQK
MGSDKIHHHHHHMKIGAVLTREQVISARYVHHGLLTPFPDPLVAAQRLAGVQAQILPAAGLALWNRVAGFSADQLEHLLYHERSLVRLWGQRGTLHLYAMTDWPLVYGMQAGQATYWEQEAQRDGWAVDEYEAFIARVGDLLYEHETLGRSDLRRLLPAIDQRHLSGWGGVFAILTRRGLACHAAPRGGEARMTHRLRWRPDLVWEPPDTDTANAEMLRRYLAVFGPVRLVDMTCWRGRTQAEMKRWLALIGEEVVRVSVDGQPAWWLQSYLDRLADLPTPADLPPHLLGRFDPLLLGTRDKSWLIDADVYNRVWRPAGHIEATMLVHGRIAGTWRYDWRGSSIVVTLRPFKPLPPSERIRIESLAAGVAEHFAAPLGDCRWEAVA
MGSDKIHHHHHHMKIGVIQASTRTDLNQLLFEAVKQAAGNQHEIVNFGVFPQETENYSYVEVAIMISLLIETGAIDFMVSGCSSGQGMMMACNSLPGLQAGFIQTPQDAFLFGRINNGNVASLSLGLNFGWAGELNLQYALNELFHGEFGIGYPPEVAERKREEAQLLLTLNDITKKSFLEIIDQLDKALLFKILKRKDLTAYLFDYGSNSLLLERLQFFRN
MGSDKIHHHHHHMKIKCIITDDEPIARKGLRGYIEKVDFLTLTGECEDAVQLNTILKTQEIDLLFLDIEMPEMTGIELLSNLTNPPKVIIVSAYEQYALKGYEFNVVDYLLKPVSFDRFIKSVNKIYDLLQTEQKEKNDYIFVKSNKLLKKILFKDILYIESMENYVVIQTVSCKEVVYTTLKQLNDSLPKDVFQQTHRSYIVNLEKVTAIDGNQLTLSSYKIPVARTFRDSIFNLILNNRLIIKS
MGSDKIHHHHHHMKILFVAPGWPRGRLWGELGFKFPSLALAALAAVTPPEWDAALCDESRETIDFNAPCDLVAITAMTPQAPRAYEIAAGFRARGKTVVMGGFHASNLPDEALGHVDAVVVGEGELSWPLLLADFQAGRLQRLYRSPGLLPMASIPVARREIFAGKGYLLTNTLQTTRGCPFDCEFCSVTAFYGRKYRERPVEAVLAELETLRKANSFAFFVDDNLVADRRYALPLFRGMKGMGFKWLSHAPIDFAGDEELMRAAGESGCIGMFVGFESLDQEALAAMGKVTNSSSAFLDQARKFRDHGIGILGSFVLGYDGDTPDSFGRILRFCEEARIEAAIFPILTPYPGTAVRRRLEAEGRITSNDWRDYDMGHVTFRPTGMTARELQDGHDWLNRSFYSFGSMWRRIGKLHRSVQVFGPMNLGFRSAIRKSDKTKAS
MGSDKIHHHHHHMKISICGKGGCGKSSITTLLAKEFAKKGHNVLVIDGDESNLSLHKLLGMDLPKDFIEYLGGRKEFMKKLREKMDGKEVELFEGEISIDSLPKEYLVEKDNIKLLAIGKIHDFGEGCACPMGALLREFLKSLKLKDKEVVIVDTEAGIEHFGRGVEGGCDVIIAIIDPTYESIRLSKKIEEIGEKLGKKVYFIVNKVDDETKDLILENVNKDKVIAVIPNNKEIMKCGLMGEELNAELSEIKDVVEILTK
MGSDKIHHHHHHMKIVKFGGSSLSSGVQIRKVFQIVKSDPERRIVVVSAPGKRFKGDVKITDLLLKLAEAILNEEKTAQIYEQIFLRYQAIGDFFKIPRSGIEQLKEHLYSVAQADYPSNDFFRAALSAQGENMSAHLITLIFKQLGLKARLLTPKEVGLTVSGEARKAQILPGSYAKIAKTKFTDNEVLIFPGFFGITKNGLINTFSRGGSDITGAILARGFGADLYENFTDVDSIYAVNPGLVADPAPIKEMTYNEMRELSYAGFAVFHDEAILPAIQGKIPICVKNTNRPEMPGTKIVPRDKVSHKNKITGIASSHHFQAIYLHRYLINREVGFTAKILKIMADLNISYEHMPSGIDDLTIILDKNQLTNGRKEKLTQRIKDEIQPDDLQWRNDYAIIMVVGEGLVNRVGAMADIVDPIRDAGISLTMVNQGSSEISIMLGVRPEDEQKAVKAIYNDHFENGHPKKELQIPRASFKSVSKSLIANFFV
MGSDKIHHHHHHMKKKFQLEVPGGADKVLLHTCCAPCSSAIIECLMQHGVTPVIYYCNPNIYPLEEYIIRKDECTRYAQSLGLEIIDADYDHDAWRCRMAGMEQEPERGGRCLRCFKMRLQETARYAHEHGFPVITTTLASSRWKSLEQIEEAGRYATAPYPDVTYWEQNWRKGGLSERRIAIIKEYNFYNQQYCGCEFSMRKEEKGG
MGSDKIHHHHHHMKKLRVPHRTKSARVVQELVRLAAGLAASGSRVEDAFWENCLTAKIHAQLRTGDDQNLESALDQLYDTDPGGYSEFMYAIEAAIECSIFTRGNHTYDVLMLAVPMLTWSRFSIPSGLIAESVLSELRGQLQVQVLADDAQLALADCLFSPDQLPRGYHLTHELARKLWSTAVTGQRDLHMNPRQLPETGRFLSDTRYLLGGIAVPQGKPMFRWQQGTAGEHKGSNVSALQFSKEQILHAWQTHGTAVLLPLFQGCAFELLMPDGFFSAWRAADRLARPYSVRATVDFLETTLGISPDRLRAVIAPFYDQWLEEYRIGFTLKDRDSVLYGIIWGLVGDEDENTDSVAQIEAALRECGVTQTILLQEHFLLEYCEECGGPLFPNVNGEIVHAEFPEEGEVAPIHLH
MGSDKIHHHHHHMKKNVQIKGTKSGISIFLSDKASISELQQELSQLLADQKQNPYSGEKLEVQVQIGNRLFSEEEEREISTIIHNNSQMKISAFYSNVMSKDEAKKWKENDQIFSMATIIRSGQVVQVPGDFLLIGDVNPGGQIRSNGNVFVLGNIKGIIHAGFEGDENAVVAGKFLYPSQVRIAGKVYGFDSEDYKEVADTDLFSAFVNDAGEIVIDEIHKIRKIRPEISNFQGGR
MGSDKIHHHHHHMKKSCKVSVHQLQIGNFVRLPVAWKDHPFLFSSFHIKQAAQIELIKNLGIAHVIVDLERSDVEPLSIDAVNPIKLPPAPEIHDLKNDMELYKAEQIEVQKKLRRDIHKTEQNFTRSVAMMRSMISKLRNRPLNAVDDAKDLVHSIVEQLLTSDNLVLHLMSDAKQDESIYYHSLNVAILSMLIAKEMEWSRSEIEAIGLSALFHDVGKLKIPPQILKKSTPWSAPELNFIKQHPLLGVELLKLAENFPPSALPAITNHHEFLDGTGYPKGLKEADLDQMSQLLAVVNEYDSLCYPNPQDKPMMPYAALGHLYKQYKTKLNQEYIGKIIKMLGIYPPGSVVELSSGQYAMVMSVNLQKLLCPKILVYDAQVPKDQAPIVDLELEGISIVRCLPPAALPEKVHEYLNPRERVSYYFGGDSRK
